In the supplement of paper PMC9170038:

Tested on: MS2 coat protein
Assay: apparent KD of MS2 coat protein; designed switch direction (-1 OFF switch, 1 ON switch): -1; higher = weaker reporter binding
Outline: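 Normalised cluster fluorescence was curve-fitted, and each design's median over clusters is its apparent KD. Before this, SNAP-549-labelled MS2 coat protein was titrated from 0.7 or 1.5 nM, doubling to 3 µM, over RNA switches transcribed on Illumina chips by stalled E. coli RNA polymerase. Titrations had no input, 200 uM small-molecule ligand, or an oligonucleotide input, and steps lasted 0.8–1.5 h (lowest) to 10–20 min (highest).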

[1] = Eterna round: R95, input ligand: FMN 200 uM
[2] = Eterna round: R95, input ligand: microRNA oligo, concentration not stated
[3] = Eterna round: R95, input ligand: none
[4] = input ligand: microRNA oligo, concentration not stated

Sequence | apparent KD of MS2 coat protein (input ligand: FMN 200 uM) [nM] | apparent KD of MS2 coat protein (input ligand: none) [nM] | apparent KD of MS2 coat protein [1] [nM] | apparent KD of MS2 coat protein [2] [nM] | apparent KD of MS2 coat protein [3] [nM] | apparent KD of MS2 coat protein [4] [nM]
AUAAAUAGCGAGGAUAUCGUAUCGGAAACGAUACGAGAAGGCGUAACAUGAGGAUCACCCAUGUGUCCUCAAUA [Mat - Exclusion 6 - Eli Mod - D6] (Eterna round: R97, puzzle: Exclusion 6) | 801 | 87.2 |  |  |  | 
CUUUUAAAUGUGAGGAUAUACUGUUAUUAAAGUUAGUAGAAGGUACAUGAGGAUCACCCAUGUUAAUUACUCUA [JR_BME4_Sub048] (puzzle: Brourd's mod of Exclusion 4) |  |  | 15.1 | 12.5 | 12.6 | 
CGUGACUGAGGAUAUCUAUGAUGUCACAUGAGGAUCACCCAUGUCCAGCGAAAGCUGGAGGGAGAAGGCAGUCACG [Fiskers Ex 5 - 31] (puzzle: Exclusion 5) |  |  | 34.5 | 122 | 115 | 
AGAAGGAAAGUGAGGAUAUGCUCUACCUCGGUAGAGCAGAAGGCACAUGAGGAUCACCCAUGUGACUCCUCAUU [Omei Ex4B B26] (Eterna round: R97, puzzle: Brourd's mod of Exclusion 4) | 29.2 | 19.5 |  |  |  | 
UAUUCUAGAUAGGAUAUACUUUAUUUUUUUUUCGUAGAAGGAUCUACAUGAGGAUCACCCAUGUUAACAGCAGU [JR_E6_Sub009] (puzzle: Exclusion 6) |  |  |  | 50.5 |  | 
CAGCGGUGAGGAUAUACGUAGGUACAGAUCUGUGUGUUCCUACAUGAGGAUCACCCAUGUAGAAGGCAUGGCUG [LRO-Excl2-11] (puzzle: Exclusion 2) |  |  |  | 37.1 |  | 
UAAGAUUACCGAGGAUAUGGUAAUUUUUAUUAACCAGAAGGCGGACUCAACAUGAGGAUCACCCAUGUAUAAAGGGUAUUAGUU [JR_ExcNG1_Sub039] (Eterna round: R96, puzzle: Exclusion NG 1) | 87.5 | 98.7 |  |  |  | 70.7
AUGAGACAUGAGGAUCACCCAUGUGAGGAUAUGUAUGGAUGGUAGAAAGAAUGAAAGAACAGAAGGCACGUAGA [JR_Exclu1_Sub061] (puzzle: Exclusion 1) |  |  | 143 | 150 | 210 | 
CAUUAGCGGGCAGGAUAUCCUAAUAAGCAGAAUGGAGAAGGGCCAAGGUCAACUUGAGGAUCACCCAAGUCAUAAAGUUGGCCC [Mutated MS2 EX1.29] (Eterna round: R96, puzzle: Exclusion NG 1) | 10.9 | 13.9 |  |  |  | 11.6
AACUGGACAGGAUAUGUUCUUGAGCACUUGAGGAUCACCCAAGUCAUCAAGAACUCAGGCACAGAAGGGUUUAUGC [salish99_ex5_r4_003] (Eterna round: R97, puzzle: Exclusion 5) | 19 | 13.4 |  |  |  | 
UUCCGCCUAGGAUAUUGGAUACUCUACAUGAGGAUCACCCAUGUGAGCAUGAAAGAUAUCCAAGAAGGAGGUAGCC [Eternabot (L2) Solution 68] (Eterna round: R97, puzzle: Exclusion 5) | 16.7 | 14.6 |  |  |  | 
AAAUACAAGCAAAGAUCUUACAUGAGGAUCACCCAUGUGCUCGUUUUAUAAAGUACUAUCACGAAAGUGAUAGUACA [Sensor 3, v1 - 31] (puzzle: Sensor v3, turn-off variant 1) |  |  | 25 | 93.4 | 28.3 | 
UUUAAUUUUUUUUUUUUACAAGCUUUUUGCUCGUCUUAUACAUGAGGAUCACCCAUGUAGGUGAGAAGUAAAUUAUC [JMF 49] (puzzle: Sensor v3, turn-off variant 2) |  |  | 19.3 | 168 | 23.3 | 
GGUCCACAUGAGGAUCACCCAUGUUAGGAUAUCUCGCCCGAGUCGUUAUGGGCCAGGCAGAGAAGGAAUGUGAA [Cebeisve] (puzzle: Exclusion 1) |  |  |  | 18 |  | 
UGCCGUAGAGGAUAUACAUUGAAAUAGAUUCAUGUAAAACUACAUGAGGAUCACCCAUGUAGAAGGCUAUGGCU [JL-ex2-4.34 Eli mod] (Eterna round: R97, puzzle: Exclusion 2) | 68.4 | 23 |  |  |  | 
UACAUGAGGAUCACCCAUGUUUUGUCGUGUUUGGUACCCGUUUAGGAUAUCGUGUUAUUGGAUCGCGAGAAGGAGAGUAUCUUU [Excl-NG3-LRO08] (Eterna round: R96, puzzle: Exclusion NG 3) | 26.8 | 31.7 |  |  |  | 26
AAGAAGAAGUAAGGAUAUGAAGAUUUGGUGAUGACAUGAGGAUCACCCAUGUGAAAACAAUAAGAUCAGAAGGUAUAAGAAGAA [AK ExNG2-2.2] (Eterna round: R96, puzzle: Exclusion NG 2) | 104 | 112 |  |  |  | 61.6
GGUUGGCGAGGAUAUACAUGAGGAUCACCCAUGUGAGAGAAAAAAGUGAGGAAGAAAAGUAGAAGGCGCUGACU [salish99_ex3_r3_047] (puzzle: Exclusion 3) |  |  | 221 | 53.2 | 50.1 | 
CCCAGUUAGUGAGGAUAUCAUACAUGAGGAUCACCCAUGUAAUAAAUGAGGAUUUCGGGUGUCUAUGAGAAGGCACGGAUAGGC [Ostracism 26 - Jieux - Exclusion NG 2] (Eterna round: R96, puzzle: Exclusion NG 2) | 27.2 | 30.4 |  |  |  | 22.2
GUGAAGUAAGGAUAUACAUGAGGAUCACCCAUGUAAGGGAAGGUGAUGGGAGUAGAUAGUAGAAGGUACGAGGA [JR_Exclu3_Sub066] (puzzle: Exclusion 3) |  |  |  | 103 |  | 
AGGUUGUGAGGAUAUUAGUUAUAUGUUUGGAGGUGUAUGGCUGAGAAGGCACAUGAGGAUCACCCAUGUAGAUC [JR_Ex4_Sub049] (Eterna round: R97, puzzle: Exclusion 4) | 301 | 175 |  |  |  | 
AUUUAGAGAGGAUAUAUAUUGUGAAACAUGAGGAUCACCCAUGUAAUAAUAUGGAUGUAAAUAGAAGGCUCAUUUU [Mat - Exclusion 5 - JL mod - D10] (puzzle: Exclusion 5) |  |  | 40.2 | 37.4 | 41.8 | 
ACCGUGAGGGUGAGGAUAUUCUGAGGGACGCCCUGGAAGAAGGUACAUGAGGAUCACCCAUGUGGCCUCAGACU [Eternabot (L2) Solution 99] (Eterna round: R97, puzzle: Brourd's mod of Exclusion 4) | 35.8 | 32.4 |  |  |  | 
UUGGAUAAUGUAGGAUAUGCAAGGCGAACCUAAGCAGAAGGACAUGAGGAUCACCCAUGUAAUGCGGUCUGCGUACAGAUCGCA [12th something] (Eterna round: R96, puzzle: Exclusion NG 1) | 79 | 22.1 |  |  |  | 29
AGCGAGGUAGGAUAUACAUGAGGAUCACCCAUGUGCUUGCAUGGCGUGGAACGUCGAGGUAGAAGGGCCAUGCC [EX3 #73] (Eterna round: R97, puzzle: Exclusion 3) | 24.5 | 27.8 |  |  |  | 
UUUUGAUAUGAAGGAUAUACUUAACAUGAGGAUCACCCAUGUGGUGUUGUGAGUGAGUGAGUUUAGUAGAAGGUCAAUUAUUUU [JMF's solution 26] (Eterna round: R96, puzzle: Exclusion NG 2) | 470 | 303 |  |  |  | 293
AAACUGCAUGUGAGGAUAUGCACCAGCUAAGCCGGGCAGAAGGCACAUGAGGAUCACCCAUGUCAUCCUAUUGC [Latibibe] (puzzle: Brourd's mod of Exclusion 4) |  |  | 26.5 | 11.6 | 14.4 | 
AUCUGCACGCUGCGGUCCUACAUGAGGAUCACCCAUGUGGUCUGGUGGCGUGGGUCGCCGGACUUGGCUCGUCUUGG [salish99_S_TOV1_R5_050] (Eterna round: R97, puzzle: Sensor, turn-off variant 1) | 15.4 | 15.2 |  |  |  | 
GUUUAGUGAGGAUAUGUGGCUUCGAUCGUGCGAGGGAGGCUACAGAAGGCACAUGAGGAUCACCCAUGUUCCUC [salish99_ex4_r4_303] (Eterna round: R97, puzzle: Exclusion 4) | 655 | 42.5 |  |  |  | 
CGAUGUAGAGGAUAUACGUGAAUUUUGUUAUUUUUUAAUUUACAUGAGGAUCACCCAUGUAGAAGGCUAUAUCG [JR_Ex2_Sub087] (Eterna round: R97, puzzle: Exclusion 2) | 91.9 | 22.2 |  |  |  | 
